Test results from patent publication US20110076298A1, “Soluble stabilized trimeric hiv env proteins and uses thereof” (priority 2006, published 2011).
Like-named read-outs stand apart in the source and are kept apart here.

What was measured:
[1] = Detergent collapse effect on 5768.4 SOSIP R6 gp140 preparation, BN-PAGE; type: physicochemical; conditions: 1 hour, room temperature
Experimental: FIG. 15: Detergent “collapse” effect on subtype B 5768.4 HMW aggregate. 0.24 ug of purified subtype B 5768.4 SOSIP R6 gp140 trimer was incubated with 0.05 or 0.1% Tween 20. In addition, similar incubations were performed with NP40, Triton X-100, and SDS (at a final concentration of 0.1%) or the trimer preparation was untreated. Reactions were separated on BN-PAGE and visualized by coomassie G-250 stain. Arrows indicate HMW aggregate, a2M contaminant, trimer and monomer proteins. M stands for the 669 k thyroglobulin and 440 k ferritin molecular weight protein standards.
Tween® 20 Dose effect: 1 ug of purified 5768.4 SOSIP R6 trimer was incubated with varying concentrations of Tween® 20 ranging from 0.1 to 0.0001% (v/v) and incubated for 1 hour at room temperature. Following incubation, samples were analyzed by BN-PAGE as described above. Detergent effect on 5768.4 SOSIP R6 gp140 trimer preparations: 0.24 ug of purified 5768.4 SOSIP R6 trimer was incubated with Triton X-100, NP-40, or SDS to a final detergent concentration of 0.1% (v/v) or with Tween® 20 at concentrations of 0.05 and 0.1% for 1 hour at room temperature. Following incubation, 4× BN-PAGE MOPS sample buffer was added and the samples were immediately analyzed on BN-PAGE at 150 V for 2 hours at room temperature, followed by Coomassie G-250 staining.

[2] = test system: HIV-1JR-FL Env-pseudotyped virus; test: Env-pseudotyped HIV-1 neutralization assay, JR-FL Env; type: cell-based; conditions: CCR5 inhibitors and RT inhibitor, read-out: Env-pseudotyped neutralization (50% endpoint) JR-FL
Experimental: (§1) FIGS. 4A-AF: Inhibition of infection by HIV-1JR-FL (filled circles) or HIV-1KNH1144 (open circles) Env-pseudotyped viruses by MAbs and fusion inhibitors. The viruses were incubated with the indicated concentrations of the inhibitors for 1 h prior to addition to U87.CD4.CCR5 cells. The luciferase content of cell lysates was determined after 3-4 days.
(§2) The generation and quantification of Env-pseudotyped HIV-1 viruses and their subsequent use in neutralization assays have been described previously.^45,65. U87.CD4.CCR5 target cells were used because the input pseudoviruses had the R5 phenotype. The amount of input pseudovirus was normalized by infectivity (virus titer). Virus infection was measured by determining luciferase expression in relative light units (RLU) in target cell lysates, according to the manufacturer's instructions (Promega, Madison, Wis.).
(§3) To assess the neutralization sensitivity of viruses bearing subtype A Env proteins, cytoplasmic tail-truncated gp140s from KER2008, KNH1144, KNH1207 and KNH1211 were co-expressed in trans with the pNL4/3.Luc plasmid to form single cycle, replication-incompetent pseudoviruses^72. Pseudovirions bearing the full-length Env protein from HIV-1JR-FL were also studied, for comparison.

[3] = test system: HIV-1KNH1144 Env-pseudotyped virus; test: Env-pseudotyped HIV-1 neutralization assay, KNH1144 Env; type: cell-based; conditions: CCR5 inhibitors and RT inhibitor, read-out: Env-pseudotyped neutralization (50% endpoint) KNH1144
Experimental: as §1, §2, §3

[4] = biological target: gp120BaL (subtype B) (HIV-1 BaL, subtype B); test: ELISA on D7324-captured gp120, half-maximal binding
[5] = biological target: KNH1144 gp120 (monomeric, subtype A) (HIV-1 KNH1144, subtype A); test: as above
[6] = biological target: gp120DU151 (subtype C) (HIV-1 DU151, subtype C); test: as above
[7] = biological target: KNH1207 gp120 (monomeric, subtype A) (HIV-1 KNH1207, subtype A); test: as above
[8] = biological target: gp120JR-FL (monomeric, subtype B) (HIV-1 JR-FL, subtype B); test: as above
[9] = biological target: KNH1211 gp120 (monomeric, subtype A) (HIV-1 KNH1211, subtype A); test: as above
[10] = biological target: Q23-17 gp120 (monomeric, subtype A) (HIV-1 Q23-17, subtype A); test: as above
[11] = biological target: KER2008 gp120 (monomeric, subtype A) (HIV-1 KER2008, subtype A); test: as above
[12] = Oligomeric stability of purified SOSIP gp140 trimers to detergents, BN-PAGE; type: physicochemical; conditions: 0.1% (v/v), 1 h, 25° C.
Experimental: Biophysical and antigenic characterization of purified trimers derived from KNH1144 SOSIP gp140. (A) Trimeric KNH1144 SOSIP gp140 was treated with 0.1% (v/v) ionic (SDS) and non-ionic (NP40, Nonidet-P40; Tw20 (Tween®-20); TX100 (Triton X-100) detergents for 1 h at 25° C. before BN-PAGE analysis. (B) Trimeric KNH1144 SOSIP gp140 was incubated with 0.5 μg/ml of the indicated MAbs or proteins, and then immunoprecipitated with protein G sepharose prior to analysis by SDS-PAGE.
The oligomeric stability of purified SOSIP gp140 trimers was determined essentially as previously described.^44 Briefly, 50 ng of protein was treated with 0.1% (v/v) SDS, Nonidet P-40, Tween®-20 or Triton X-100 for 1 h at room temperature, followed by analysis on BN-PAGE. The various oligomeric forms of Env resolved on the gel were detected by CA13 immunoblotting.
A purified Env trimer should meet several criteria to establish that it has been synthesized, folded, cleaved and otherwise post-translationally modified correctly. For example, it is important to establish that SOSIP gp140 trimers are oligomerized via non-covalent interactions between the gp41ECTO subunits, and not via aberrant inter-subunit disulfide bonds^40,66,67. For these assessments, purified KNH1144 SOSIP gp140 trimers were treated for 1 h at 25° C. with 0.1% (v/v) ionic (SDS) and non-ionic (NP-40, Tween®-20, Triton X-100) detergents and then analyzed by BN-PAGE. […] This is consistent with studies of JR-FL SOSIP gp140 trimers^44.

[13] = biological target: BB359 gp120 (monomeric, subtype A) (HIV-1 BB359, subtype A); test: ELISA on D7324-captured gp120, half-maximal binding
[14] = biological target: HIV-1KNH1144 Env on Env-pseudotyped virus (HIV-1 KNH1144, subtype A); test: cell-based or functional assay
[15] = biological target: HIV-1KNH1207 Env on Env-pseudotyped virus (HIV-1 KNH1207, subtype A); test: cell-based or functional assay
[16] = biological target: HIV-1KER2008 Env on Env-pseudotyped virus (HIV-1 KER2008, subtype A); test: cell-based or functional assay
[17] = biological target: HIV-1KNH1211 Env on Env-pseudotyped virus (HIV-1 KNH1211, subtype A); test: cell-based or functional assay

Molecule | EC50 [4] [µg/mL] | EC50 [5] [µg/mL] | EC50 [6] [µg/mL] | EC50 [7] [µg/mL] | EC50 [8] [µg/mL] | EC50 [9] [µg/mL] | EC50 [10] [µg/mL] | EC50 [11] [µg/mL] | EC50 [13] [µg/mL] | other results
5768.4 SOSIP R6 gp140: subtype B 5768.4 envelope modified to the soluble SOSIP R6 gp140 trimer; SEQ ID NO:10 | – | – | – | – | – | – | – | – | – | effect of NP40 on HMW aggregate ([1]; 0.1%): collapse of HMW aggregate to trimer; effect of SDS ([1]; 0.1%): breaking down the entire 5768.4 gp140 protein to resulting monomers; effect of Triton X-100 on HMW aggregate ([1]; 0.1%): capable of collapsing HMW aggregate to trimer, however, some breakdown to monomeric 5768.4 was observed; effect of Tween (Tween 20 and Tween 80) on HMW aggregate ([1]; 0.1 and 0.05%): effectively collapsed HMW aggregate to trimers
Cc1cn([C@H]2C[C@H](N=[N+]=[N-])[C@@H](CO)O2)c(=O)[nH]c1=O [AZT] | – | – | – | – | – | – | – | – | – | IC50 [2]: 220 nM; IC50 [3]: 240 nM
CCO/N=C(\c1ccc(Br)cc1)C1CCN(C2(C)CCN(C(=O)c3c(C)cc[n+]([O-])c3C)CC2)CC1 [SCH-C] | – | – | – | – | – | – | – | – | – | IC50 ([2]; Human immunodeficiency virus 1): 0.2 nM; IC50 ([3]; Human immunodeficiency virus 1): 0.04 nM
COC[C@@H](c1ccc(C(F)(F)F)cc1)N1CCN(C2(C)CCN(C(=O)c3c(C)ncnc3C)CC2)C[C@@H]1C [SCH-D] | – | – | – | – | – | – | – | – | – | IC50 ([2]; Human immunodeficiency virus 1): 0.1 nM; IC50 ([3]; Human immunodeficiency virus 1): 0.01 nM
CD4-immunoglobulin G2 (CD4-IgG2) protein (from UniProt P01730 26-204) (Fc fusion) | 0.057 | 0.103 | 0.09 | 0.068 | 0.046 | 0.063 | 0.083 | 0.236 | – | –
KNH1144 SOSIP gp140: soluble, disulfide-stabilized, I571P-modified cleaved trimeric gp140 of HIV-1 subtype A KNH1144 | – | – | – | – | – | – | – | – | – | adverse effects of NP-40 on trimers [12]: little; adverse effects of Triton X-100 on trimers [12]: little; adverse effects of Tween-20 on trimers [12]: no; effect of SDS on trimers [12]: completely dissociate into dimers and monomers
MAb CA13 (ARP 3119) (antibody) | 0.059 | 0.636 | 0.043 | 0.337 | > 9 | 0.176 | 0.094 | 1.57 | 0.406 | –
human monoclonal IgG 2F5 (antibody) | – | – | – | – | – | – | – | – | – | IC50, neutralization of Env-pseudotyped virus [14]: > 3 µg/mL; IC50, neutralization of Env-pseudotyped virus [15]: 0.01 µg/mL; IC90, neutralization of Env-pseudotyped virus [15]: 0.21 µg/mL; IC50, neutralization of Env-pseudotyped virus [16]: > 3 µg/mL; IC50, neutralization of Env-pseudotyped virus [17]: 0.03 µg/mL; IC90, neutralization of Env-pseudotyped virus [17]: 0.99 µg/mL
human monoclonal IgG 2G12 (antibody) | 0.012 | > 1 | > 1 | 0.478 | 0.061 | > 1 | 0.54 | 0.064 | > 1 | –
human monoclonal IgG b12 (antibody) | 0.015 | 0.642 | 0.018 | 0.092 | 0.027 | 0.033 | > 1 | > 1 | > 1 | IC90, neutralization of Env-pseudotyped virus [14]: > 3 µg/mL; IC50, neutralization of Env-pseudotyped virus [15]: 0.21 µg/mL; IC90, neutralization of Env-pseudotyped virus [15]: 0.9 µg/mL; IC90, neutralization of Env-pseudotyped virus [16]: > 3 µg/mL; IC50, neutralization of Env-pseudotyped virus [17]: 1.14 µg/mL; IC90, neutralization of Env-pseudotyped virus [17]: 1.9 µg/mL
